Measurements as given in US20170275666A1, “Methods for Preparing Rebaudioside I and Uses” (The Coca-Cola Company, priority 2014, published 2017).
Numbering of substitutions follows the chain as printed.

B1: UGT76G1var42: UGT76G1 variant, mutations T263S_Q266S_R334H (protein, UniProt Q6VAB4 1-458, looked up, variant T263S Q266S R334H)
UDP-glycosyltransferase 76G1: MENKTETTVRRRRRIILFPVPFQGHINPILQLANVLYSKGFSITIFHTNFNKPKTSNYPHFTFRFILDNDPQDERISNLPTHGPLAGMRIPIINEHGADELRRELELLMLASEEDEEVSCLITDALWYFAQSVADSLNLRRLVLMTSSLFNFHAHVSLPQFDELGYLDPDDKTRLEEQASGFPMLKVKDIKSAYSNWQILKEILGKMIKQTKASSGVIWNSFKELEESELETVIREIPAPSFLIPLPKHLTASSSSLLDHDRSVFSWLDQQPPSSVLYVSFGSTSEVDEKDFLEIARGLVDSKQSFLWVVRPGFVKGSTWVEPLPDGFLGERGHIVKWVPQQEVLAHGAIGAFWTHSGWNSTLESVCEGVPMIFSDFGLDQPLNARYMSDVLKVGVYLENGWERGEIANAIRRVMVDEEGEYIRQNARVLKQKADVSLMKGGSSYESLESLVSYISSL
B2: UGT76G1var43: UGT76G1 variant, mutations S241I_P272A_V279I (protein, UniProt Q6VAB4 1-458, looked up, variant S241I P272A V279I)
UDP-glycosyltransferase 76G1: B1 UDP-glycosyltransferase 76G1 with S241I, S263T, S266Q, P272A, V279I, H334R
B3: UGT76G1var44: UGT76G1 variant, mutations I335V_S375R_I407V (protein, UniProt Q6VAB4 1-458, looked up, variant I335V S375R I407V)
UDP-glycosyltransferase 76G1: B1 UDP-glycosyltransferase 76G1 with S263T, S266Q, H334R, I335V, S375R, I407V
B4: UGT76G1var45: UGT76G1 variant, mutations V279I_D301N_S389E (protein, UniProt Q6VAB4 1-458, looked up, variant V279I D301N S389E)
UDP-glycosyltransferase 76G1: B1 UDP-glycosyltransferase 76G1 with S263T, S266Q, V279I, D301N, H334R, S389E
B5: UGT76G1var46: UGT76G1 variant, mutations F22L_Q266E_I295M (protein, UniProt Q6VAB4 1-458, looked up, variant F22L Q266E I295M)
UDP-glycosyltransferase 76G1: B1 UDP-glycosyltransferase 76G1 with F22L, S263T, S266E, I295M, H334R
B6: UGT76G1var47: UGT76G1 variant, mutations E229A_T284I_S389E (protein, UniProt Q6VAB4 1-458, looked up, variant E229A T284I S389E)
UDP-glycosyltransferase 76G1: B1 UDP-glycosyltransferase 76G1 with E229A, S263T, S266Q, T284I, H334R, S389E
B7: UGT76G1var2: UGT76G1 variant, mutations S274G_T284I_L379G (protein, UniProt Q6VAB4 1-458, looked up, variant S274G T284I L379G)
UDP-glycosyltransferase 76G1: B1 UDP-glycosyltransferase 76G1 with S263T, S266Q, S274G, T284I, H334R, L379G
B8: UGT76G1var48: UGT76G1 variant, mutations V394I_Y397E_Q432E (protein, UniProt Q6VAB4 1-458, looked up, variant V394I Y397E Q432E)
UDP-glycosyltransferase 76G1: B1 UDP-glycosyltransferase 76G1 with S263T, S266Q, H334R, V394I, Y397E, Q432E
B9: UGT76G1var49: UGT76G1 variant, mutations F41L_Q266E_T284I_Y397Q (protein, UniProt Q6VAB4 1-458, looked up, variant F41L Q266E T284I Y397Q)
UDP-glycosyltransferase 76G1: B1 UDP-glycosyltransferase 76G1 with F41L, S263T, S266E, T284I, H334R, Y397Q
B10: UGT76G1var50: UGT76G1 variant, mutations F22Y_V310I_S375M_F377C (protein, UniProt Q6VAB4 1-458, looked up, variant F22Y V310I S375M F377C)
UDP-glycosyltransferase 76G1: B1 UDP-glycosyltransferase 76G1 with F22Y, S263T, S266Q, V310I, H334R, S375M, F377C
B11: UGT76G1var51: UGT76G1 variant, mutations K303G_S357C_S389E_V396F (protein, UniProt Q6VAB4 1-458, looked up, variant K303G S357C S389E V396F)
UDP-glycosyltransferase 76G1: B1 UDP-glycosyltransferase 76G1 with S263T, S266Q, K303G, H334R, S357C, S389E, V396F
B12: UGT76G1var52: UGT76G1 variant, mutations D301N_I373L_F377C_I407V (protein, UniProt Q6VAB4 1-458, looked up, variant D301N I373L F377C I407V)
UDP-glycosyltransferase 76G1: B1 UDP-glycosyltransferase 76G1 with S263T, S266Q, D301N, H334R, I373L, F377C, I407V
B13: UGT76G1var53: UGT76G1 variant, mutations R334K_A352G_P382M_S389E (protein, UniProt Q6VAB4 1-458, looked up, variant R334K A352G P382M S389E)
UDP-glycosyltransferase 76G1: B1 UDP-glycosyltransferase 76G1 with S263T, S266Q, H334K, A352G, P382M, S389E
B14: UGT76G1var54: UGT76G1 variant, mutations E229A_T284L_R334K_Q342E (protein, UniProt Q6VAB4 1-458, looked up, variant E229A T284L R334K Q342E)
UDP-glycosyltransferase 76G1: B1 UDP-glycosyltransferase 76G1 with E229A, S263T, S266Q, T284L, H334K, Q342E
B15: UGT76G1var55: UGT76G1 variant, mutations I295M_Q342E_V366I_N409R (protein, UniProt Q6VAB4 1-458, looked up, variant I295M Q342E V366I N409R)
UDP-glycosyltransferase 76G1: B1 UDP-glycosyltransferase 76G1 with S263T, S266Q, I295M, H334R, Q342E, V366I, N409R
B16: UGT76G1var56: UGT76G1 variant, mutations L246F_A352G_S357N_Q432E (protein, UniProt Q6VAB4 1-458, looked up, variant L246F A352G S357N Q432E)
UDP-glycosyltransferase 76G1: B1 UDP-glycosyltransferase 76G1 with L246F, S263T, S266Q, H334R, A352G, S357N, Q432E
B17: UGT76G1var57: UGT76G1 variant, mutations S241I_T263S_L379G_A385T (protein, UniProt Q6VAB4 1-458, looked up, variant S241I T263S L379G A385T)
UDP-glycosyltransferase 76G1: B1 UDP-glycosyltransferase 76G1 with S241I, S266Q, H334R, L379G, A385T
B18: UGT76G1var3: UGT76G1 variant, mutations I295T_S357C_V366I (protein, UniProt Q6VAB4 1-458, looked up, variant I295T S357C V366I)
UDP-glycosyltransferase 76G1: B1 UDP-glycosyltransferase 76G1 with S263T, S266Q, I295T, H334R, S357C, V366I
B19: UGT76G1var58: UGT76G1 variant, mutations S357C_S375M_N409R_Q425E (protein, UniProt Q6VAB4 1-458, looked up, variant S357C S375M N409R Q425E)
UDP-glycosyltransferase 76G1: B1 UDP-glycosyltransferase 76G1 with S263T, S266Q, H334R, S357C, S375M, N409R, Q425E
B20: UGT76G1var59: UGT76G1 variant, mutations I335V_K393G_V394I_Y397Q (protein, UniProt Q6VAB4 1-458, looked up, variant I335V K393G V394I Y397Q)
UDP-glycosyltransferase 76G1: B1 UDP-glycosyltransferase 76G1 with S263T, S266Q, H334R, I335V, K393G, V394I, Y397Q

Experiment: Directed evolution of UGT76G1, conversion of Rebaudioside D to Rebaudioside M (round 1)
Assay type: biochemical
Conditions: 0.5 mM Rebaudioside D, 2.5 mM UDP-Glucose, 100 μL fresh lysate, 30° C., pH 7.2
Source text: Starting from the amino acid sequence of UGT76G1, as is described in Genbank (AAR06912.1), different mutations at various amino acid positions were identified that could alter the activity of the enzyme for the transformation of Rebaudioside D (Reb D) to Rebaudioside M (Reb M). This list of mutations, designed by DNA2.0 ProteinGPS™ strategy, was subsequently used to synthesize 96 variant genes that contained 3, 4 or 5 of these mutations that were codon-optimized for expression in E. coli. The genes were subcloned in the pET30a+ plasmid and used for transformation of E. coli BL21 (DE3) chemically competent cells. The obtained cells were grown in Petri-dishes on solid LB medium in the presence of Kanamycin. Suitable colonies were selected and allowed to grow in liquid LB medium in tubes. Glycerol was added to the suspension as cryoprotectant and 400 μL aliquots were stored at −20° C. and at −80° C.
These storage aliquots of E. coli BL21(DE3) containing the pET30a+_UGT76G1var plasmids were thawed and added to LBGKP medium (20 g/L Luria Broth Lennox; 50 mM PIPES buffer pH 7.00; 50 mM Phosphate buffer pH 7.00; 2.5 g/L glucose and 50 mg/L of Kanamycine). This culture was allowed to shake in a 96 microtiter plate at 135 rpm at 30° C. for 8 h.
3.95 mL of production medium containing 60 g/L of Overnight Express™ Instant TB medium (Novagen®), 10 g/L of glycerol and 50 mg/L of Kanamycin was inoculated with 50 μL of above described culture. In a 48 deepwell plate the resulting culture was allowed to stir at 20° C. The cultures gave significant growth and a good OD (600 nm; 1 cm) was obtained. After 44 h, the cells were harvested by centrifugation and frozen.
Lysis was performed by addition of Bugbuster® Master mix (Novagen®) to the thawed cells and the lysate was recovered by centrifugation. Activity tests were performed with 100 μL of fresh lysate that was added to a solution of Rebaudioside D (final concentration 0.5 mM), MgCl2 (final concentration 3 mM) and UDP-Glucose (final concentration 2.5 mM) in 50 mM phosphate buffer pH 7.2.
The reaction was allowed to run at 30° C. and samples were taken after 2, 4, 7 and 24 h. to determine conversion and initial rate by HPLC (CAD detection) using the analytical method that was described above for the transformation of Rebaudioside D to Rebaudioside M. The results are depicted in the following table.

| Molecule | Conversion Reb D to Reb M after 24 h (%) | initial rate (Reb M area/min) |
| --- | --- | --- |
| B1 | 34.6 | 2.2E+07 |
| B2 | 19.9 | 9.4E+06 |
| B3 | 35.3 | 2.3E+07 |
| B4 | 38.6 | 2.3E+07 |
| B5 | 0.6 | 9.8E+05 |
| B6 | 4.8 | 2.7E+06 |
| B7 | 49.3 | 4.7E+07 |
| B8 | 47.6 | 3.8E+07 |
| B9 | 2.6 | 1.1E+06 |
| B10 | 1.9 | 7.9E+05 |
| B11 | 18.7 | 9.5E+06 |
| B12 | 12.9 | 4.6E+06 |
| B13 | 9.3 | 4.1E+06 |
| B14 | 0.7 | 4.3E+05 |
| B15 | 1.0 | 2.2E+05 |
| B16 | 0.4 | 4.1E+04 |
| B17 | 0.8 | 1.5E+05 |
| B18 | 9.6 | 1.6E+06 |
| B19 | 7.5 | 2.2E+06 |
| B20 | 33.0 | 2.7E+07 |
